# From article PMC7215387, “Comparison of Target Recognition by TRAF1 and TRAF2” (International Journal of Molecular Sciences, 2020)
# T1: TRAF1 (Homo sapiens, UniProt Q13077)
# T1 construct: the TRAF1 TRAF domain (amino acid residues 220-416); 6xHis (C); made in house; host or cells: E. coli BL21 (DE3)
# T1 sequence (Q13077 220-416): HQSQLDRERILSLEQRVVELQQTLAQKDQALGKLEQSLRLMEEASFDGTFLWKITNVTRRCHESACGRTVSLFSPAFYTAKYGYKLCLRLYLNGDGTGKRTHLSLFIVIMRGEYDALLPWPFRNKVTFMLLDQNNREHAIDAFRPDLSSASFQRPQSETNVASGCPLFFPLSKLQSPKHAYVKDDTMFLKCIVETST
# T2: TRAF2 (Homo sapiens, UniProt Q12933)
# T2 construct: TRAF2 TRAF domain (amino acid residues 305-501); 6xHis (C); made in house; host or cells: E. coli BL21 (DE3)
# T2 sequence (Q12933 305-501): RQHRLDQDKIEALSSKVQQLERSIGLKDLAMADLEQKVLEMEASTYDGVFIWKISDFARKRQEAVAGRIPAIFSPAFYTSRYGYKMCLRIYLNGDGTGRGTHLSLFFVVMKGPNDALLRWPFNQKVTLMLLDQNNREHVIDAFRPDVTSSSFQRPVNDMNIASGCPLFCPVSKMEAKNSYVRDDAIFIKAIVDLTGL
# B1: TRADD-N: N-terminal domain of TRADD (TRADD-N, amino acid residues 1-163) (protein)
# chain: MAAGQNGHEEWVGSAYLFVESSLDKVVLSDAYAHPQQKVAVYRALQAALAESGGSPDVLQMLKIHRSDPQLIVQLRFCGRQPCGRFLRAYREGALRAALQRSLAAALAQHSVPLQLELRAGAERLDALLADEERCLSCILAQQPDRLRDEELAELEDALRNLK
# modifications: left off: His6 (from the vector pET24a), C-terminal, state not stated
# How the values were obtained:
# Type in all cases: binding
# TRAF1 [1] = molecular target: T1, TRAF1; assay: Native-PAGE complex formation with TRAF1; conditions: 8% to 25% acrylamide gradient gels, Coomassie; 1 h at 4 °C; TRAF1 TRAF domain (220-416)
# Source text: (§1) TRADD is a well-known regulator of the TRAF function. The death domain located at the C-terminus of TRADD interacts with death-domain containing receptors and adaptor proteins including TNFR, receptor interacting protein 1 (RIP1) and Fas-associated death domain protein (FADD), while the N-terminal domain of TRADD (TRADD-N) interacts with the TRAF domain of TRAF2 (Figure 2a). Although several indirect interactions between TRAF1 and TRADD have been described, a direct interaction and direct analyses between TRAF1 and TRADD have not been reported. To directly study their interactions and binding properties, which may provide important clues for understanding TRAF-mediated signaling by TRADD, TRAFs and TRADD-N were purified, and initial interaction testing was performed by Native-PAGE. […] Although TRAF1 did interact with TRADD-N, this interaction was not as tight as with TRAF2 (Figure 2b). To further confirm this association, the interaction between the TRAFs and TRADD-N was further tested by size-exclusion chromatography. […]
# (§2) The formation of complexes was assayed by native (non-denaturing) PAGE conducted on a PhastSystem (GE Healthcare) with pre-cast 8% to 25% acrylamide gradient gels (GE Healthcare). […] Complex formation was evaluated based on the appearance of newly formed bands or the disappearance of bands that were detected in single control protein bands.
# TRAF1 [2] = molecular target: T1, TRAF1; assay: Complex formation assay by gel-filtration (size-exclusion) chromatography with TRAF1; conditions: Superdex 200 10/30, 20 mM Tris pH 8.0, 150 mM NaCl; 1 h at 4 °C; peak shift approximately 16 mL
# Source text: as §1
# Purified TRAF domains and TRADD-N proteins were mixed, incubated at 4 °C for 1 h, and concentrated to 4 to 5 mg/mL using a protein concentration kit (Millipore). […] Complex assembly was evaluated based on the positions of eluted protein peaks monitored at 280 nm followed by SDS-PAGE.
# TRAF2 = molecular target: T2, TRAF2; assay: Native-PAGE complex formation with TRAF2; conditions: 8% to 25% acrylamide gradient gels, Coomassie; 1 h at 4 °C; TRAF2 TRAF domain (305-501)
# Source text: as §1, §2
molecule,measurement,setting,value
B1,Native-PAGE band change on incubation with TRAF1,TRAF1 [1],only a small portion of the TRADD-N band disappeared
same,co-migration with TRAF1 in size-exclusion chromatography / SDS-PAGE,TRAF1 [2],TRADD-N did not perfectly co-migrate with TRAF1
same,Native-PAGE band change on incubation with TRAF2,TRAF2,"the TRADD-N band was completely absent, forming a new complex band"
